± gives the standard deviation of the averaged measurements.

The text below walks through data of the supplement of paper PMC10724198.
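Further: PSI is a weighted mean of sequencing reads over stability bins, variants kept only with over 10 reads, mCherry proximal and sfGFP distal, peptide attached via GGGS linker.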

For the data set, the system named is Saccharomyces cerevisiae. Nature of the data set: protein stability index of tFT-peptide fusion (C-terminal peptide) (PSI (0-1 scale)); higher = more stable (slower turnover). The conditions noted are these: genetic background: wild type; temperature: 30 C. Here is the method: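 Multiplexed protein stability (MPS) profiling in S. cerevisiae. Random 12-aa peptides (tFT-X12 library) are fused to the C-terminus of a sfGFP-mCherry tandem fluorescent timer, after mCherry and a GGGS linker. Cells are FACS-sorted into 8 mCherry/sfGFP bins and deep-sequenced. The protein stability index (PSI) is the read-weighted bin average, scaled from 0 (unstable) to 1 (stable). Only peptides with >10 reads are reported; cells were grown at 30 °C in SC-His with glucose.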
GGARESGRVEQV displayed a protein stability index of 0.676 ± 0.011.
Take GGARPVWDPGFG: the protein stability index was found to be 0.684 ± 0.0031.
As to GGCGGVWGACVV, the protein stability index came to 0.709 ± 0.023.
Turning to GGCVTRYSSQRA, the protein stability index was 0.656 ± 0.041.
The result for GGCVVGTGRRRY reads 0.6114 ± 0.0061.
The result for GGDAGGVFSRLC reads 0.632 ± 0.0096.
As for GGDGGSDHHRER, the protein stability index was determined as 0.6856 ± 0.0044.
Turning to GGEGGRALGVGR, the protein stability index is 0.673 ± 0.028.
Turning to GGEGLRGAAWGI, the protein stability index was determined as 0.653 ± 0.12.
As to GGEICPARECGA, the protein stability index was 0.648 ± 0.042.
In the case of GGFGAVPEVRAR it was 0.725 ± 0.035.
GGFICRHGVGRG yielded a protein stability index of 0.708 ± 0.011.
For GGFLMVSPMDWA, the protein stability index was 0.703 ± 0.026.
As to GGFTSIRLTHLS, the protein stability index is 0.698 ± 0.043.
For the sequence GGGAFVGLDFGG, the protein stability index was found to be 0.684 ± 0.0071.
GGGAGGAVRRAS showed a protein stability index of 0.6932 ± 0.005.
GGGAGGGGRRGR came in with a protein stability index of 0.747 ± 0.01.
GGGAGRSWFVGC came in with a protein stability index of 0.711 ± 0.042.
The result for GGGARPTLDRAR reads 0.637 ± 0.028; that for GGGAWGGMCGVV, 0.717 ± 0.047.
With GGGDGIHRYAGG, the protein stability index amounted to 0.7 ± 0.035.
In the case of GGGERCEGVWVE it was 0.579 ± 0.01; in that of GGGEWGLGVRPR, 0.725 ± 0.008; in that of GGGGEVARSAHR, 0.6696 ± 0.0056.
In the case of GGGGGERGRGGS it was 0.708 ± 0.02; in that of GGGGGGLTGRVG, 0.711 ± 0.009; in that of GGGGGSSWVGYG, 0.8981 ± 0.0027.
Regarding GGGGGWGGGGGG, the protein stability index was determined as 0.7 ± 0.087.
GGGGHMGGRLVK returned a protein stability index of 0.692 ± 0.039.
GGGGKGTSGQGR displayed a protein stability index of 0.688 ± 0.017.
GGGGLDGYGGGG returned a protein stability index of 0.69 ± 0.029.
In turn, GGGGLGWWEWDR showed a protein stability index of 0.736 ± 0.071.
In the case of GGGGPGGLVGAA, the protein stability index came to 0.662 ± 0.035.
The result for GGGGSRRGVGDR reads 0.687 ± 0.013; that for GGGGTGTSGQGR, 0.718 ± 0.046; that for GGGIVGWFCRGR, 0.675 ± 0.068.
Turning to GGGLGGGGGVWG, the protein stability index is 0.7104 ± 0.004.
On to GGGLGGVRGGVR, for which the protein stability index is 0.628 ± 0.074.
The result for GGGLMVARFGPS reads 0.664 ± 0.037.
Consider GGGLREARVLRG, for which the protein stability index worked out at 0.711 ± 0.015.
The sequence GGGLSGEGGLGR gave a protein stability index of 0.639 ± 0.014.
For the sequence GGGLWLYKKLVF, the protein stability index was determined as 0.682 ± 0.13.
The result for GGGNEDCLRGGY reads 0.651 ± 0.056; that for GGGNGGTGCDWG, 0.629 ± 0.018.
The result for GGGPWGRVGRGG reads 0.679 ± 0.037; that for GGGRALEGAAGP, 0.583 ± 0.063; that for GGGRGGGGGGDA, 0.697 ± 0.038.
The result for GGGRGLRCNGLG reads 0.738 ± 0.1; that for GGGRGNRGEKMT, 0.67 ± 0.012.
Turning to GGGRGRAGVGVW, the protein stability index was 0.714 ± 0.05.
With GGGVGASMSGTP, the protein stability index was determined as 0.689 ± 0.0069.
As to GGGVGEWCLVRL, the protein stability index was 0.6849 ± 4.4e-05.
In the case of GGGVWQWERGRG it was 0.811 ± 0.14; in that of GGGWCSGYLAGV, 0.679 ± 0.056.
The sequence GGGWSRGGSGAG had a protein stability index of 0.687 ± 0.011.
In the case of GGIPINVLPGCR, the protein stability index worked out at 0.739 ± 0.15.
In the case of GGLGVGPGWWGP it was 0.733 ± 0.043; in that of GGLGWGARQGAL, 0.68 ± 0.024.
In turn, GGLICRHGGGRG gave a protein stability index of 0.706 ± 0.02.
GGLWAAAGKARV gave a protein stability index of 0.692 ± 0.026.
Regarding GGNDIIQNRKGK, the protein stability index turned out to be 0.674 ± 0.039.
GGNGIVPVWMNF yielded a protein stability index of 0.695 ± 0.041.
GGPAWGRVGMYW returned a protein stability index of 0.666 ± 0.047.
Consider GGPVGGGGGSGE, for which the protein stability index stood at 0.641 ± 0.032.
As for GGQGKWPGTPLL, the protein stability index was 0.738 ± 0.022.
GGRCGREGGAER registered a protein stability index of 0.61 ± 0.054.
On to GGRCWMCVAVTE, for which the protein stability index was determined as 0.591 ± 0.019.
Consider GGRGGATRRGSL, for which the protein stability index was found to be 0.764 ± 0.055.
Regarding GGRGGEVVLWQA, the protein stability index was found to be 0.726 ± 0.12.
Sequence GGRGREGRPPGP registered a protein stability index of 0.641 ± 0.034.
GGRNGLGITGGE registered a protein stability index of 0.648 ± 0.034.
In the case of GGRRLKDAETWA, the protein stability index was 0.615 ± 0.029.
GGRRTEIYTGPA yielded a protein stability index of 0.703 ± 0.019.
Sequence GGRVWAGGYLGA gave a protein stability index of 0.707 ± 0.068.
The sequence GGRWGDSGMGVV registered a protein stability index of 0.715 ± 0.026.
In turn, GGSCGFGLGAGG registered a protein stability index of 0.665 ± 0.041.
The result for GGSDLLIGFWPC reads 0.716 ± 0.027.
